Test system: proteins that co-immunoprecipitated with DUX4-CTD constructs expressed in MB135 myoblasts
Test: LC-MS of proteins co-immunoprecipitated with DUX4-CTD (Table 1) and western validation
Type: binding, human
Set-up: key to 4. mL1dL2 + Dox + IFNG / 4. + IFNG mix / 4. longCTD + Dox + IFNG / 3. + IFNg + Dox longCTD / 3. + Dox longCTD / 3. + IFNG longCTD: peptide-spectrum matches (PSMs) per protein
Conditions: kind of count not given; for 4. mL1dL2 + Dox + IFNG: LC-MS value per protein co-immunoprecipitated with DUX4-CTD construct mL1dL2 in MB135 myoblasts; for 4. + IFNG mix: LC-MS value per protein co-immunoprecipitated from MB135 myoblasts, + IFNG mix sample (no Dox)
How it was run: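 Two independent experiments compared uninduced, doxycycline and doxycycline+IFNG MB135iDUX4-CTD (plus MB135iDUX4mL1dL2) myoblasts. Anti-FLAG pulldowns (3 h, 4 °C) were eluted in LDS buffer for western validation or with FLAG peptide for trypsin digestion and Orbitrap LC-MS; hits needed ≥2 PSMs in both experiments, ranked by total PSMs.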

Row | Molecule | 4. mL1dL2 + Dox + IFNG | 4. + IFNG mix
1 | PRSS2 (protein) IVGGYICEENSVPYQVSLNSGYHFCGGSLISEQWVVSAGHCYKSAINSKLSGRGCEYHRIQVRLGEHNIEVLEGNEQFINAAKIIRHPKYNSRTLDNDILLIKLSSPAVINSRVSAISLPTAPPAAGTESLISGWGNTLSSGADYPDELQCLDAPVLSQAECEASYPGKITNNMFCVGFLEGGKDSCQGDSGGPVVSNGELQGIVSWGYGCAQKNRPGVYTKVYNYVDWIKDTIAANS | 1 | 
2 | S100A9 (protein) MTCKMSQLERNIETIINTFHQYSVKLGHPDTLNQGEFKELVRKDLQNFLKKENKNEKVIEHIMEDLDTNADKQLSFEEFIMLMARLTWASHEKMHEGDEGPGHHHKPGLGEGTP | 2 | 
3 | SLC25A3 (protein) AVEEQYSCDYGSGRFFILCGLGGIISCGTTHTALVPLDLVKCRMQVDPQKYKGIFNGFSVTLKEDGVRGLAKGWAPTFLGYSMQGLCKFGFYEVFKVLYSNMLGEENTYLWRTSLYLAASASAEFFADIALAPMEAAKVRIQTQPGYANTLRDAAPKMYKEEGLKAFYKGVAPLWMRQIPYTMMKFACFERTVEALYKFVVPKPRSECSKPEQLVVTFVAGYIAGVFCAIVSHPADSVVSVLNKEKGSSASLVLKRLGFKGVWKGLFARIIMIGTLTALQWFIYDSVKVYFRLPRPPPPEMPESLKKKLGLTQ | 2 | 3
4 | RTN4 (protein) MEDLDQSPLVSSSDSPPRPQPAFKYQFVREPEDEEEEEEEEEEDEDEDLEELEVLERKPAAGLSAAPVPTAPAAGAPLMDFGNDFVPPAPRGPLPAAPPVAPERQPSWDPSPVSSTVPAPSPLSAAAVSPSKLPEDDEPPARPPPPPPASVSPQAEPVWTPPAPAPAAPPSTPAAPKRRGSSGSVDETLFALPAASEPVIRSSAENMDLKEQPGNTISAGQEDFPSVLLETAASLPSLSPLSAASFKEHEYLGNLSTVLPTEGTLQENVSEASKEVSEKAKTLLIDRDLTEFSELEYSEMGSSFSVSPKAESAVIVANPREEIIVKNKDEEEKLVSNNILHNQQELPTALTKLVKEDEVVSSEKAKDSFNEKRVAVEAPMREEYADFKPFERVWEVKDSKEDSDMLAAGGKIESNLESKVDKKCFADSLEQTNHEKDSESSNDDTSFPSTPEGIKDRSGAYITCAPFNPAATESIATNIFPLLGDPTSENKTDEKKIEEKKAQIVTEKNTSTKTSNPFLVAAQDSETDYVTTDNLTKVTEEVVANMPEGLTPDLVQEACESELNEVTGTKIAYETKMDLVQTSEVMQESLYPAAQLCPSFEESEATPSPVLPDIVMEAPLNSAVPSAGASVIQPSSSPLEASSVNYESIKHEPENPPPYEEAMSVSLKKVSGIKEEIKEPENINAALQETEAPYISIACDLIKETKLSAEPAPDFSDYSEMAKVEQPVPDHSELVEDSSPDSEPVDLFSDDSIPDVPQKQDETVMLVKESLTETSFESMIEYENKEKLSALPPEGGKPYLESFKLSLDNTKDTLLPDEVSTLSKKEKIPLQMEELSTAVYSNDDLFISKEAQIRETETFSDSSPIEIIDEFPTLISSKTDSFSKLAREYTDLEVSHKSEIANAPDGAGSLPCTELPHDLSLKNIQPKVEEKISFSDDFSKNGSATSKVLLLPPDVSALATQAEIESIVKPKVLVKEAEKKLPSDTEKEDRSPSAIFSAELSKTSVVDLLYWRDIKKTGVVFGASLFLLLSLTVFSIVSVTAYIALALLSVTISFRIYKGVIQAIQKSDEGHPFRAYLESEVAISEELVQKYSNSALGHVNCTIKELRRLFLVDDLVDSLKFAVLMWVFTYVGALFNGLTLLILALISLFSVPVIYERHQAQIDHYLGLANKNVKDAMAKIQAKIPGLKRKAE | 5 | 5
5 | HAT1 (protein) AGFGAMEKFLVEYKSAVEKKLAEYKCNTNTAIELKLVRFPEDLENDIRTFFPEYTHQLFGDDETAFGYKGLKILLYYIAGSLSTMFRVEYASKVDENFDCVEADDVEGKIRQIIPPGFCTNTNDFLSLLEKEVDFKPFGTLLHTYSVLSPTGGENFTFQIYKADMTCRGFREYHERLQTFLMWFIETASFIDVDDERWHYFLVFEKYNKDGATLFATVGYMTVYNYYVYPDKTRPRVSQMLILTPFQGQGHGAQLLETVHRYYTEFPTVLDITAEDPSKSYVKLRDFVLVKLCQDLPCFSREKLMQGFNEDMVIEAQQKFKINKQHARRVYEILRLLVTDMSDAEQYRSYRLDIKRRLISPYKKKQRDLAKMRKCLRPEELTNQMNQIEISMQHEQLEESFQELVEDYRRVIERLAQE | 10 | 1
6 | AP2A1 (protein) MPAVSKGDGMRGLAVFISDIRNCKSKEAEIKRINKELANIRSKFKGDKALDGYSKKKYVCKLLFIFLLGHDIDFGHMEAVNLLSSNKYTEKQIGYLFISVLVNSNSELIRLINNAIKNDLASRNPTFMCLALHCIANVGSREMGEAFAADIPRILVAGDSMDSVKQSAALCLLRLYKASPDLVPMGEWTARVVHLLNDQHMGVVTAAVSLITCLCKKNPDDFKTCVSLAVSRLSRIVSSASTDLQDYTYYFVPAPWLSVKLLRLLQCYPPPEDAAVKGRLVECLETVLNKAQEPPKSKKVQHSNAKNAILFETISLIIHYDSEPNLLVRACNQLGQFLQHRETNLRYLALESMCTLASSEFSHEAVKTHIDTVINALKTERDVSVRQRAADLLYAMCDRSNAKQIVSEMLRYLETADYAIREEIVLKVAILAEKYAVDYSWYVDTILNLIRIAGDYVSEEVWYRVLQIVTNRDDVQGYAAKTVFEALQAPACHENMVKVGGYILGEFGNLIAGDPRSSPPVQFSLLHSKFHLCSVATRALLLSTYIKFINLFPETKATIQGVLRAGSQLRNADVELQQRAVEYLTLSSVASTDVLATVLEEMPPFPERESSILAKLKRKKGPGAGSALDDGRRDPSSNDINGGMEPTPSTVSTPSPSADLLGLRAAPPPAAPPASAGAGNLLVDVFDGPAAQPSLGPTPEEAFLSELEPPAPESPMALLADPAPAADPGPEDIGPPIPEADELLNKFVCKNNGVLFENQLLQIGVKSEFRQNLGRMYLFYGNKTSVQFQNFSPTVVHPGDLQTQLAVQTKRVAAQVDGGAQVQQVLNIECLRDFLTPPLLSVRFRYGGAPQALTLKLPVTINKFFQPTEMAAQDFFQRWKQLSLPQQEAQKIFKANHPMDAEVTKAKLLGFGSALLDNVDPNPENFVGAGIIQTKALQVGCLLRLEPNAQAQMYRLTLRTSKEPVSRHLCELLAQQF | 5 | 
7 | P4HA1 (protein) HPGFFTSIGQMTDLIHTEKDLVTSLKDYIKAEEDKLEQIKKWAEKLDRLTSTATKDPEGFVGHPVNAFKLMKRLNTEWSELENLVLKDMSDGFISNLTIQRQYFPNDEDQVGAAKALLRLQDTYNLDTDTISKGNLPGVKHKSFLTAEDCFELGKVAYTEADYYHTELWMEQALRQLDEGEISTIDKVSVLDYLSYAVYQQGDLDKALLLTKKLLELDPEHQRANGNLKYFEYIMAKEKDVNKSASDDQSDQKTTPKKKGVAVDYLPERQKYEMLCRGEGIKMTPRRQKKLFCRYHDGNRNPKFILAPAKQEDEWDKPRIIRFHDIISDAEIEIVKDLAKPRLRRATISNPITGDLETVHYRISKSAWLSGYENPVVSRINMRIQDLTGLDVSTAEELQVANYGVGGQYEPHFDFARKDEPDAFKELGTGNRIATWLFYMSDVSAGGATVFPEVGASVWPKKGTAVFWYNLFASGEGDYSTRHAACPVLVGNKWVSNKWLHERGQEFRRPCTLSELE | 27 | 1
8 | PHGDH (protein) AFANLRKVLISDSLDPCCRKILQDGGLQVVEKQNLSKEELIAELQDCEGLIVRSATKVTADVINAAEKLQVVGRAGTGVDNVDLEAATRKGILVMNTPNGNSLSAAELTCGMIMCLARQIPQATASMKDGKWERKKFMGTELNGKTLGILGLGRIGREVATRMQSFGMKTIGYDPIISPEVSASFGVQQLPLEEIWPLCDFITVHTPLLPSTTGLLNDNTFAQCKKGVRVVNCARGGIVDEGALLRALQSGQCAGAALDVFTEEPPRDRALVDHENVISCPHLGASTKEAQSRCGEEIAVQFVDMVKGKSLTGVVNAQALTSAFSPHTKPWIGLAEALGTLMRAWAGSPKGTIQVITQGTSLKNAGNCLSPAVIVGLLKEASKQADVNLVNAKLLVKEAGLNVTTSHSPAAPGEQGFGECLLAVALAGAPYQAVGLVQGTTPVLQGLNGAVFRPEVPLRRDLPLLLFRTQTSDPAMLPTMIGLLAEAGVRLLSYQTSLVSDGETWHVMGISSLLPSLEAWKQHVTEAFQFHF | 1 | 
9 | SLC3A2 (protein) SQDTEVDMKEVELNELEPEKQPMNAASGAAMSLAGAEKNGLVKIKVAEDEAEAAAAAKFTGLSKEELLKVAGSPGWVRTRWALLLLFWLGWLGMLAGAVVIIVRAPRCRELPAQKWWHTGALYRIGDLQAFQGHGAGNLAGLKGRLDYLSSLKVKGLVLGPIHKNQKDDVAQTDLLQIDPNFGSKEDFDSLLQSAKKKSIRVILDLTPNYRGENSWFSTQVDTVATKVKDALEFWLQAGVDGFQVRDIENLKDASSFLAEWQNITKGFSEDRLLIAGTNSSDLQQILSLLESNKDLLLTSSYLSDSGSTGEHTKSLVTQYLNATGNRWCSWSLSQARLLTSFLPAQLLRLYQLMLFTLPGTPVFSYGDEIGLDAAALPGQPMEAPVMLWDESSFPDIPGAVSANMTVKGQSEDPGSLLSLFRRLSDQRSKERSLLHGDFHAFSAGPGLFSYIRHWDQNERFLVVLNFGDVGLSAGLQASDLPASASLPAKADLLLSTQPGREEGSPLELERLKLEPHEGLLLRFPYAA | 4 | 2

— patent publication US20250339531A1, “DUX4 POLYPEPTIDES AND NUCLEIC ACIDS FOR TREATING INFLAMMATORY AND AUTOIMMUNE CONDITIONS” (Fred Hutchinson Cancer Center, priority 2021, published 2025)
